Paper PMC3156124

What was measured:
GEP100 = GEP100 (UniProt Q6DN90); assay: anti-HA (GEP100) IP, anti-V5 (VEGFR2) blot; settings: reference: wild type VEGFR2-V5; sites Y951
GEP100 PH domain = GEP100 PH domain (UniProt Q6DN90); assay: peptide dot-blot overlaid with GST-PH; settings: reference: non-phosphorylated Tyr951 peptide; sites Y951

binding against the reference (GEP100) | binding against the reference (GEP100 PH domain) | Substance
lost | – | VEGFR2 (from UniProt P35968) 951F
– | gained | VEGFR2 Tyr951 peptide (from UniProt P35968) pY951 peptide
